# Data taken from the nanobody polyreactivity screen of Harvey et al. (2022).
# Assay: yeast display, Sf9 membrane polyspecificity reagent, FACS + sequencing; frameworks hold sequencing errors
# In short: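 In a synthetic yeast display library (Saccharomyces cerevisiae BJ5465), nanobody expression was induced with galactose for 36–48 hours. FACS gates were set low and high (top ~1%) using anti-HA fluorescence for expression and streptavidin fluorescence for binding of the Sf9 membrane reagent. Each polyreactivity label is drawn from the gate of origin.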
row,Sequence,polyreactivity (PSR sort gate)
1,QVQLVESGGGLVQAGGSLRLSCAASGRTFSVYAMGWYRQAPGKERELVAVIRGRGGRTYYADSVKGRFTISRDNAKNTVYLQMNSLKPEDTAVYYCNAVGQIVYGKQYDYWGQGTQVTVSS,high polyreactivity
2,QVQLVESGGGLVQAGGSLRLSCAASGITFRSYAMGWYRQAPGKDRELVAAISRTGGRTYYADSVKGRFTISRDNAKNTVYLQMNTLKAEDTAVYYCAAGGYSPYSLVGYDYWGQGTQVTVSS,high polyreactivity
3,QVQLVESGGGLVQAGGSLRLSCAASGRILYCYTMGWYRQAPGKERELVAGITTRGGNTYYADSVKGRFTISRDNAKNSVYLQMNSLKPEDTAVYYCAARFSGPARMDYWGQGTQVTVSS,low polyreactivity
4,QVQLVESGGGLFQAGGSLRLSCAASGRIFGLYAMGWYRQAPGKERELVAAISRGGGSTYYADSVKGRFTISRDNAKNTVYLQMNSLKAEDTAFDFCATGLGYFCRLDYWGQGTQLTVSS,low polyreactivity
5,QVQLVESGGGLVQAGGSLRLSCAASGRTFGVYALGWYRQAPRKERELVAGIRWRGGSTYYADSVKGRFTISRDNAKNTVYLQMNSLKPEDTAVYYCAADVYLVKYDYWGQGTQVTVSS,low polyreactivity
6,QVQLVESGGGLFQAGGSLRLSCAASGSTIQQYAMGWYRQAPGKEREFVAAISWRGGRTYYADSVKGRFTISRDNAKNTVYLQMNRLKPEDTAVYYCAVDPSIYRLSAYYYDYWGQGTQVTVSS,low polyreactivity
7,QVQLVESGGGLVQAGGSLRLSCAASGRILAANAMGWYRQAPGKERELVAAISWSGGRTYYADSVKGRFTISRDNAKNTVYLQMNSLKPEDTAVYYCIKLALAGYDYWGQGTQVTVSS,high polyreactivity
8,QVQLVESGGGLVQAGGSLRLSCAASGFIFATNTMGWYRQAPGKERELVAASSTYYADSVKGRFTISRDNAKNTVYLQMNSLKPEDTAVYYCNADRDSYIGFDLSESDYWGQGTQVTVSS,low polyreactivity
9,QVQLVESGGGLVQAGGSLRLSCAASGIIFYGYAMGWYRQAPAKERELVAAITYSGGSTYYADSVKGRFTISRDNAKNTVYLQMNSLKPEDTAVYYCDAYDAYSPYLALYDYWVQGTQVTVSS,low polyreactivity
10,QVQLVESGGGLVQAGGSLRLSCAASGSIFVYNAMGWYRQAPGKERELVAAISQRGGSTYYADSVKGRFTISRDNAKNTVYLQMNSLKPEDTAVYYCAAAPGDSGDDYWGQGTQVTVSS,low polyreactivity
11,QVQLVESGGGLVQAGGSLRLSCAASGRIFYFYAMGWYRQAPGKETELVAAISTSGGSTYYADSVKGRFTISRDNEKNTVYLQMNSLKPEYTAVYYCAARFRYYGSEYDYWGQGTQVTVSS,low polyreactivity
12,QVQLVESVGGLVQVGGSLRLSCAASGSILTDYGMGWYRQAPGKERELVAAITGSGGSTYYADSVKGRFTISRDNAKNTVYLQMNSLKPEDTAVYYCAKRHVGSRYLFDYWGQGTQVTVSS,low polyreactivity
13,QVQFVESGGGLVQAGGSLRLSCAASGSIFYRYTMGSYRQAPGKERELVAAISSRGGSTYYADSVKGRFTISRDNAKNTVYLQMNSLKPEDTAVYYCAARYFRNPVFVIMDYWGQGTQVTVSS,high polyreactivity
14,QVQLVESGGGLVQAGGSLRLSCAASGITFYYYVMGWYRQAPGKERELVAAIDSGDSTYYADSVKGRFTISRDNAKNTVYLQMNSLKPEDTAVYYCAVDYEADNELNGPDQEYGRDSWGQGTQVTVSS,low polyreactivity
15,QVQLVESGGGLVQAGGSLRLSCAASGRIFGDNAMGWSRQAPGKEWELVAAITVNAGSTHYAASVKGRFTISRDNAKNTVYLQMNSLKPEDTAVYYCAKQTAPVTGVGPYFYWGQGTQVTVSS,low polyreactivity
16,QVQLVESGGGLVQAGGSLRLSCAASGIIFDDYALGWYRPAPGKVRELVAAINSNGGTTYYADSVKGRFTISRDNAKNTVYLQMNSLKPEDTAVYYCAARPYRIGRYGYDYDYWGQGTQVTVSS,high polyreactivity
17,QVQLVESGGGLVQAGGGLRLSCAASGNTFRYYAMGWYIQAPGKERELVATITSGGRTYYADSVKGRFTISRDNAKNTVYLQMNSLKPEDTAVYYCNADYFQDRLDYWGQGTQVTVSS,low polyreactivity
